Reference: paper PMC2360559, “Repeated cycles of Clostridium-directed enzyme prodrug therapy result in sustained antitumour effects in vivo” (British Journal of Cancer, 2006)

Tested on: NC(=O)c1cc(N2CC2)c([N+](=O)[O-])cc1[N+](=O)[O-]
Assay: purified protein
Type: biochemical, Haemophilus influenzae
Conditions: 100–1000 μM CB 1954, 500 μM NADPH, 37°C, 10 min, product 4HX

Substance: NTR-H; Haemophilus influenzae NfnB; YC78_HAEIN; HinNTR (Haemophilus influenzae Rd KW20)
- Km: 690 µM
- kcat: 56.2 s⁻¹
